Columns and labels:
[1] = target: T1, human Follistatin-like-3 (FSTL3) protein, 6-His tagged (human, UniProt O95633 27-263, limits assumed); assay: Western blot
T1 construct: Made in-house as a secreted protein from stably transfected 293 cells; also called hFSTL3; human FSTL3; not shown: 6-His tag
T1 sequence (looked up): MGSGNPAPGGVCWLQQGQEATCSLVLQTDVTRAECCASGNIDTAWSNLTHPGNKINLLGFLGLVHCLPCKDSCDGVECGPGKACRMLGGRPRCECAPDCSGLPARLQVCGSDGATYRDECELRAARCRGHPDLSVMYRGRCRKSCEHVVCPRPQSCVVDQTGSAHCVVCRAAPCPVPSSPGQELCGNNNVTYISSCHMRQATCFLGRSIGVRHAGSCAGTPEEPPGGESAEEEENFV
Description: (§1) Secondary antibody (donkey anti-mouse IgG-Horse Radish Peroxidase label) was purchased from Jackson Immuno Research in West Grove Pa. Human FSTL3 was produced by Fairbanks Pharmaceuticals by cloning the human FSTL3 cDNA into an expression plasmid containing a 6-His tag. 293 cells were transfected with this plasmid and stable colonies selected. Cells were grown for 7-14 days, medium collected, and FSTL3 was purified on Nickel-Sepharose-Sephadex Beads (GE Healthcare Life Sciences, Pittsburgh Pa. Ligands: activin A (Cat No:338-AC-050), activin B (Cat No:659-AB-005), and MSTN (Cat No:788-68-010) were purchased from R&D Systems (Minneapolis, Minn.). GDF11 (Cat No:TP723130), was purchased from Origene (Rockville Md.)
(§2) Direct binding studies were conducted by performing Western blot, a technique well known in the art. Pre-determined doses of human FSTL3 (hFSTL3) or mouse FSTL3 (mFSTL3), that are easily detectable at the end of experimentation, were loaded onto SDS gels (10% NuPage gels). After electrophoresis, proteins were transferred to PVDF membranes and then tested with the selected and purified anti-hFSTL3 antibodies from FIG. 3.

mouse FSTL3 = target: T2, mouse FSTL3 (mouse, UniProt Q9EQC7 24-256, limits assumed); assay: Western blot
T2 construct: also called mFSTL3
T2 sequence (looked up): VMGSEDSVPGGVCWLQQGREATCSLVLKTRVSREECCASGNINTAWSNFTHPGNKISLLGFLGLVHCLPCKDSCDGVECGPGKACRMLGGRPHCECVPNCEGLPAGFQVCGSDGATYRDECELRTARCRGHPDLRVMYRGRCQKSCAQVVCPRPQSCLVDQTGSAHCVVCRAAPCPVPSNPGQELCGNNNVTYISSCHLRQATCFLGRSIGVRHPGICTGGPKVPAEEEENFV
Description: as §1, §2

B1: FP-102 anti-hFSTL3 monoclonal antibody (antibody, V domains shown)
VH: QVKLQQPGAELVKPGASVKLSCKASGYTFTSYWMHWVNQRPGQGLEWIGEINPGNGRTNYNEKFKSKATLTVDKSSSTAYMQLSSLTSEDSAVYFCARWLLPRGPMDYWGQGTSVTVSS
VL: DIVLTQSQKFMSTSVGDRVSVTCKASQNVGTNVAWYQQKPGQSPQGLIYSASYRYSGVPDRFTGSGSGTDFTLTISNVQSEDLAEYFCQQYNSYPLTFGAGTKLELKR
notes: Murine monoclonal from Balb-C mice; also called clone 33
**Q.** Does B1 bind [1]?
**A.** binds

**Q.** Does B1 bind (mouse FSTL3)?
**A.** binds

— patent US20200190171A1 (FAIRBANKS PHARMACEUTICALS, published 2020)
